# Paper PMC6602965
# Columns and labels:
# [1] = biological target: AhlB (Aeromonas hydrophila strain AL09-71); assay: crystal structure
# [2] = biological target: AhlC (Aeromonas hydrophila strain AL09-71)
# [3] = biological target: AhlC (Aeromonas hydrophila strain AL09-71); assay: cross-linking; 1.4 mg/ml soluble AhlC with glutaraldehyde (15 min, room temperature), then EDC in 0.1 M MES pH 6 (30 min); SDS-PAGE
# [4] = biological target: AhlB (Aeromonas hydrophila strain AL09-71)
# [5] = biological target: AhlC (Aeromonas hydrophila strain AL09-71); assay: SEC; gel filtration of AhlC alone (Supplementary Fig. 2)
# [6] = biological target: AhlC (Aeromonas hydrophila strain AL09-71); assay: crystal structure; soluble AhlC, two crystal forms (P6(5)22, 2.35 A; P2(1), 2.6 A)
Substance,stoichiometry N [1],"haemolysis with glutaraldehyde-cross-linked AhlC (mixture of monomeric and dimeric AhlC), reduction of lysis [2]",stoichiometry N [3],"haemolysis of horse erythrocytes by a 1:1 AhlB/AhlC mixture, 1 h, against lysis by osmotic shock with water [4]",stoichiometry N [5],stoichiometry N [6]
AhlB (natural protein),10,,,,,
AhlC (natural protein),,50 % reduction,2,50%,4,4
